The values that follow come from the DeepSol protein solubility set.

This series is described as follows: soluble on expression in E. coli; label from the status in PepcDB or PDB records.
With “MGSDKIHHHHHHMRVASERLILGDRITESLFLHTDIPIVEAGKKIGADELRRIKRFLIKEVDIEKRPEGMSEASMMDQELDDMIEDSIFDSLIETYNQVFTSWEQGLVPNVYDALRWVKESMPETMRRDDILPYFLERGTEAYTVRHAIYRGAIAQLLAEAAGKERKMIHDLWVASYFADCGLARIMEWRHTKRYEAMQQEIFHRHPAMAFQALQKENIISDTVKRLIVQHHERLDGSGYPLKVKGDKIMDHTRLFIVADVFAAMTSWRPYREAYKVYDAYCHLKARPMQYDSKYVMLLGQLLLPIEPGDRVLMSNGKIATVLRKNSIFDRPVIAYEEHNRRIVKDLMEDRQLNIIQLMD”, the “soluble on expression in E. coli” value is reported as “not soluble”.

“MGSDKIHHHHHHMRVIDGGVTAPKGFKANGYKEGKFGVAIIISEKDAVGAGTFTTNKVVAHPVVLSRELIKNRDKFRAIVANSGNANCFTKDGMEDAKEMQRLVAELFNINEDEVLVASTGVIGRKMDMNIIKDRINKVYNLIKEGNSSINAAKAIMTTDTKPKEIAVEFEVNGKTVRVGGIAKGAGMIAPNMLHATMLCFITTDIEIDKESLTNILQKVVDKTFNNISVDGDTSTNDTVFVLANGLSGVNYEECGEEFENALLYVCRELAKMIVKDGEGATKFMEVVVKGAKTEEDAVKASKAIVNSLLVKTAVFGGDPNWGRIVAAVGYSGADFNPEVVDVILSNYKDEVYLVKDGIPLADEGTEELKKAEEIMKSDEIKIVVDLKMGEFENVCYGCDLSYEYVRINAEYTT”: the “soluble on expression in E. coli” value is listed as “not soluble”.

For “MGSDKIHHHHHHMRVKIYTLADDYAGYNSPFWAQHGVSFLVEVEGKKILFDTASYAEPILFNMKLLNLNPRDIDMIVLSHNHFDHTGGLLGILREINRKVPIFAHPEIFKVSFALEPEFMYAGTPRLKEEAEKLGGIWILTRDPITLMPGVFTLGEIKEEEKVEFEKGSTGLFKIEDGRVIEDKVEDEIGLAINTRKGLVVLAGCAHPGIVSMVKKAIKLSGNDKVYAVLGGFHLINAEDSRIEKTVEAFKELEVKKVYAGHCTGLKAESRFAQELGDRFEKLHSGKIIEIS”, the “soluble on expression in E. coli” value is on record as “not soluble”.

On to “MGSDKIHHHHHHMRVNMYLSRQIQPLVSRLLKQFPAVLVTGARQVGKSTLLKHIAKDYAYLTFDDPLLLEQAKQEPRLFFLNHAGNVILDEVQYAQELFSLLKLEIDKQQKNGMFLLSGSQAFELMQNVSETLAGRIAILKLQGLSLREILNVEFYLPFIPSRDYLASREKMLKSPENIWQIIHKGDMPRLYQQETDWEIYYSSYVSTYIERDVRQLTNITNTTDFTRFMVALASRSGELLNYSNVAQEVGVSNETIKRWTAILQTSGIIYLLQPYSNNHLKRTIKTPKIYFLNTGLMAYLTKWLTPETISKGAKSGQFFESFVVSEIIKSFTNNGIEPPLYFYRNTNQKEIDLIIEYDRTIYPIEIKTTANPNKKMAKSFALLNSLGKESTIGLGVIINQYPNKHYLAENLVALPVRYL”, for which the “soluble on expression in E. coli” value is “not soluble”.

As to “MGSDKIHHHHHHMRYFARIAELGSFTRAASELGVAQPALSLHVRALEDQLGLQLLNRTSRGVVVTEAGQTLLVHAQAILRAVEQAEAATREQAKYPSGDVSLGILSSLSPILSIPVLEACDRRFPKIRLTISEGDSQTLRTATDIHAHDLAVNLLDVAKPTAVPLFDERLYAVGPLNAFTQRQNDLPLREALSLPLIMPSQRHGIRILLEKQALILGQKINIVRVIEGVASTKAAIRAGLGLTILGRGAVYADHQAGQLSVIPLRAPELFRRLVLDMPVNHPPTKAVLEVRQILMEVIKRLGGEGHWSCLA”, the “soluble on expression in E. coli” value was “not soluble”.

“MGSDKIHHHHHHMRYFSTDSPEVKTIVAQDSRLFQFIEIAGEVQLPTKPNPFQSLVSSIVEQQLSIKAASAIYGRVEQLVGGALEKPEQLYRVSDEALRQAGVSKRKIEYIRHVCEHVESGRLDFTELEGAEATTVIEKLTAIKGIGQWTAEMFMMFSLGRLDVLSVGDVGLQRGAKWLYGNGEGDGKKLLIYHGKAWAPYETVACLYLWKAAGTFAEEYRSLEELLHHGNQC”: the “soluble on expression in E. coli” value is given as “soluble”.
